In paper doi:10.1101/2021.04.27.441644:

Biological target: filamentous actin (F-actin) (rabbit) (UniProt P68135)
Assay: co-sedimentation

Sequence of CLIP-170 N-terminal fragment H2 (H2 1-481) (P30622 1-481): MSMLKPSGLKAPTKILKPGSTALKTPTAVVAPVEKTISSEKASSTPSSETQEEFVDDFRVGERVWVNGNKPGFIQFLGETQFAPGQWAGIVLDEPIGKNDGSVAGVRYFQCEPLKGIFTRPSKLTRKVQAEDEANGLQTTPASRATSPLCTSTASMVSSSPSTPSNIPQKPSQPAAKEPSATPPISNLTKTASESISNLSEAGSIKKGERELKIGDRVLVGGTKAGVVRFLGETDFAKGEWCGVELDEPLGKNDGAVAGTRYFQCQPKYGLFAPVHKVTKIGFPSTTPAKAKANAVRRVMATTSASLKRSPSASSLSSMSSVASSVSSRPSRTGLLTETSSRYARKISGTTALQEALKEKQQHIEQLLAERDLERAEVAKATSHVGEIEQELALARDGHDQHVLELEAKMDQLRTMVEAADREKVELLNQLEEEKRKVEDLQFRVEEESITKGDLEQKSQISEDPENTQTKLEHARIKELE

“CLIP-170 N-terminal fragment H2 (H2 1-481) (from UniProt P30622 1-481) (domain or fragment)” gave a Kd of 10 µM and a percent of H2 in the pellet with F-actin (self-pelleting subtracted) of 26%.
